From patent US6703362 (CYTOGEN, dated 2004)

T1: hPEPT1 receptor domain (human PEPT1, amino acid residues 391-571), His-tag fusion protein (human, UniProt P46059 391-571)
T1 construct: purified under denaturing conditions; also called recombinant hPEPT1; not shown: poly-histidine tag (pET vector) at the NH2-terminal end
T1 sequence: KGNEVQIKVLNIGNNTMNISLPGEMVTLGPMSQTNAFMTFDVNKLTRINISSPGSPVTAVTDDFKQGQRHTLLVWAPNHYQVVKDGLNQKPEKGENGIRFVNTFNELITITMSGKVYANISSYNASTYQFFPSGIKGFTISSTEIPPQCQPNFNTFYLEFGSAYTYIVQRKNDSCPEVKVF

T2: D2H receptor domain (human D2H transporter, amino acid residues 387-685), His-tag fusion protein (human, UniProt Q07837 387-685)
T2 construct: purified under denaturing conditions; also called recombinant D2H; not shown: poly-histidine tag (pET vector) at the NH2-terminal end
T2 sequence: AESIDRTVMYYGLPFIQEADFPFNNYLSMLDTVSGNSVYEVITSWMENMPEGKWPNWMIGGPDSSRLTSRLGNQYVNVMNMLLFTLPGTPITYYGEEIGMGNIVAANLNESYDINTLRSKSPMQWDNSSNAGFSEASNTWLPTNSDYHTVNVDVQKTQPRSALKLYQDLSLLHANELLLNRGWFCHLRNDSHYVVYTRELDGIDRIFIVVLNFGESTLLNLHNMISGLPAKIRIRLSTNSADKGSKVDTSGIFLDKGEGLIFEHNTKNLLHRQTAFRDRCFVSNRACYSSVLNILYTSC

T3: HPT1 receptor domain (human intestinal peptide-associated transporter HPT1, amino acid residues 29-273), … (human, UniProt Q12864 29-273)
T3 construct: purified under denaturing conditions; also called recombinant HPT1; not shown: poly-histidine tag (pET vector) at the NH2-terminal end
T3 sequence: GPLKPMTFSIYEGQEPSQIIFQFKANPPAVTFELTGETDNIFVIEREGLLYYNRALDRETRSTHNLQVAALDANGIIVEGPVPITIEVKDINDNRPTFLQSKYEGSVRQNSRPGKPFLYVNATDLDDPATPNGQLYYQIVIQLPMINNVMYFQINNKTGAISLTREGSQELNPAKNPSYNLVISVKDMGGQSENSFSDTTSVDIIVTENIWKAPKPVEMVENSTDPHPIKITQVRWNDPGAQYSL


How the values were obtained:
[1] = molecular target: T1, hPEPT1 receptor domain (human PEPT1, …); test: phage ELISA, plate coated with hPEPT1 domain
Method: (§1) 6.6. Receptor ELISA Procedure 96 well plates were coated overnight with GIT receptor, BSA and, optionally, IDE (insulin degrading enzyme, an irrelevant His-fusion protein)or hTF. The plates were blocked for one hour with 0.5% BSA-PBS. After clarification, the amplified phage were diluted 1:100 in […] plus 0.05% Tween 20 in PBS and added to the plates. Following incubation of the plates on a rotator for 1 to 2 hours, the plates were washed 5 times with 1% BSA plus 0.05% Tween 20 in PBS. […] After the plates were washed 5 times, as described above, TMB substrate was added to the wells. The plates were read at 650 nm absorbance.

[2] = molecular target: T1, hPEPT1 receptor domain (human PEPT1, …); test: phage ELISA, OD on hPEPT1 over OD on BSA
Method: as §1

[3] = molecular target: T2, D2H receptor domain (human D2H …); test: phage ELISA, plate coated with D2H domain
Method: as §1
Binding to fixed Caco-2 cells, D2H and BSA was examined.

[4] = molecular target: T3, HPT1 receptor domain (human intestinal …); test: phage ELISA, OD on HPT1 over OD on BSA
Method: as §1

[5] = molecular target: T4, hSI receptor domain (human sucrase-isomaltase complex, amino acid residues 272-667), His-tag fusion protein (human, UniProt P14410 272-667); test: phage ELISA, OD on hSI over OD on BSA
T4 construct: also called hS1; recombinant hSI; not shown: poly-histidine tag (pET vector) at the NH2-terminal end
Method: as §1

[6] = molecular target: T4, hSI receptor domain (human …); test: phage ELISA, plate coated with hSI domain
Method: as §1

T4 sequence (P14410 272-667, one chain of several): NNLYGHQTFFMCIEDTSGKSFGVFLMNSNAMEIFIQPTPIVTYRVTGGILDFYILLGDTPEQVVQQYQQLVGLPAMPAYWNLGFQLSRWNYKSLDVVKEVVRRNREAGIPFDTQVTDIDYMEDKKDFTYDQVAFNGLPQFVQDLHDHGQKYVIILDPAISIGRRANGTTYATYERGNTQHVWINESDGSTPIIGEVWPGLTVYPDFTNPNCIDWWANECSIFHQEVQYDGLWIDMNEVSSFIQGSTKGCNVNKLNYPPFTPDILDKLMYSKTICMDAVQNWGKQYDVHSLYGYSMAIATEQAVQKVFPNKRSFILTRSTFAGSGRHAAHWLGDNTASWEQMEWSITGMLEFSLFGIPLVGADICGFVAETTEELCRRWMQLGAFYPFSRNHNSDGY

| Binder | OD [3] | further results |
| --- | --- | --- |
| P31 (Assayed as M13 phage clone displaying the insert) peptide: SARDSGPAEDGSRAVRLNGVENANTRKSSRSNPRGRRHPAETVESCLAKPHTENSFTNVWKDDKTLDRYANYEGCLWNATGVVVCTGDETQCYGTWVPIGLAIPENEGGGSEGGGSEGGGSEGGGTKPPEYGDTPIPGYTYINPLDGTYPPGTEQNPANPNPSLEESQPLNTFMFQNNRFRNRQGALTVYTGTVTQGTDPVKTYYQYTPVSSKAMYDAYWNGKFRDCAFHSGFNEDPFVCEYQGQSSDLPQPPVNAGGGSGGGSGGGSEGGGSEGGGSEGGGSEGGGSGGGSGSGDFDYEKMANANKGAMTENADENALQSDAKGKLDSVATDYGAAIDGFIGDVSGLANGNGATGDFAGSNSQMAQVGDGDNSPLMNNFRQYLPSLPQSVECRPFVFSAGKPYEFSIDCDKINLFRGVFAFLLYVATFMYVFSTFANILRNKES | – | OD [1]: 0.807 OD; PEPT1/BSA [2]: 11 ratio |
| DCX39 (Assayed as M13 phage clone displaying the insert) peptide: SGSLNAWQPRSWVGGAFRSHANNNLNPKPTMVTRHPTAETVESCLAKPHTENSFTNVWKDDKTLDRYANYEGCLWNATGVVVCTGDETQCYGTWVPIGLAIPENEGGGSEGGGSEGGGSEGGGTKPPEYGDTPIPGYTYINPLDGTYPPGTEQNPANPNPSLEESQPLNTFMFQNNRFRNRQGALTVYTGTVTQGTDPVKTYYQYTPVSSKAMYDAYWNGKFRDCAFHSGFNEDPFVCEYQGQSSDLPQPPVNAGGGSGGGSGGGSEGGGSEGGGSEGGGSEGGGSGGGSGSGDFDYEKMANANKGAMTENADENALQSDAKGKLDSVATDYGAAIDGFIGDVSGLANGNGATGDFAGSNSQMAQVGDGDNSPLMNNFRQYLPSLPQSVECRPFVFSAGKPYEFSIDCDKINLFRGVFAFLLYVATFMYVFSTFANILRNKES | 0.299 OD | – |
| DCX33 (Assayed as M13 phage clone displaying the insert) peptide: RWNWTVLPATGGHYWTRSTDYHAINNHRPSIPHQHPTPIAETVESCLAKPHTENSFTNVWKDDKTLDRYANYEGCLWNATGVVVCTGDETQCYGTWVPIGLAIPENEGGGSEGGGSEGGGSEGGGTKPPEYGDTPIPGYTYINPLDGTYPPGTEQNPANPNPSLEESQPLNTFMFQNNRFRNRQGALTVYTGTVTQGTDPVKTYYQYTPVSSKAMYDAYWNGKFRDCAFHSGFNEDPFVCEYQGQSSDLPQPPVNAGGGSGGGSGGGSEGGGSEGGGSEGGGSEGGGSGGGSGSGDFDYEKMANANKGAMTENADENALQSDAKGKLDSVATDYGAAIDGFIGDVSGLANGNGATGDFAGSNSQMAQVGDGDNSPLMNNFRQYLPSLPQSVECRPFVFSAGKPYEFSIDCDKINLFRGVFAFLLYVATFMYVFSTFANILRNKES | 0.616 OD | – |
| DCX36 (Assayed as M13 phage clone displaying the insert) peptide: SWSSWNWSSKTTRLGDRATREGCGPSQSDGCPYNGRLTTVKPRTAETVESCLAKPHTENSFTNVWKDDKTLDRYANYEGCLWNATGVVVCTGDETQCYGTWVPIGLAIPENEGGGSEGGGSEGGGSEGGGTKPPEYGDTPIPGYTYINPLDGTYPPGTEQNPANPNPSLEESQPLNTFMFQNNRFRNRQGALTVYTGTVTQGTDPVKTYYQYTPVSSKAMYDAYWNGKFRDCAFHSGFNEDPFVCEYQGQSSDLPQPPVNAGGGSGGGSGGGSEGGGSEGGGSEGGGSEGGGSGGGSGSGDFDYEKMANANKGAMTENADENALQSDAKGKLDSVATDYGAAIDGFIGDVSGLANGNGATGDFAGSNSQMAQVGDGDNSPLMNNFRQYLPSLPQSVECRPFVFSAGKPYEFSIDCDKINLFRGVFAFLLYVATFMYVFSTFANILRNKES | 0.293 OD | – |
| DCX26 (Assayed as M13 phage clone displaying the insert) peptide: SGRTTSEISGLWGWGDDRSGYGWGNTLRPNYIPYRQATNRHRYTAETVESCLAKPHTENSFTNVWKDDKTLDRYANYEGCLWNATGVVVCTGDETQCYGTWVPIGLAIPENEGGGSEGGGSEGGGSEGGGTKPPEYGDTPIPGYTYINPLDGTYPPGTEQNPANPNPSLEESQPLNTFMFQNNRFRNRQGALTVYTGTVTQGTDPVKTYYQYTPVSSKAMYDAYWNGKFRDCAFHSGFNEDPFVCEYQGQSSDLPQPPVNAGGGSGGGSGGGSEGGGSEGGGSEGGGSEGGGSGGGSGSGDFDYEKMANANKGAMTENADENALQSDAKGKLDSVATDYGAAIDGFIGDVSGLANGNGATGDFAGSNSQMAQVGDGDNSPLMNNFRQYLPSLPQSVECRPFVFSAGKPYEFSIDCDKINLFRGVFAFLLYVATFMYVFSTFANILRNKES | 0.956 OD | – |
| HCA3 (Assayed as M13 phage clone displaying the insert) peptide: RHISEYSFANSHLMGGESKRKGCGINGSFSPTCPRSPTPAFRRTAETVESCLAKPHTENSFTNVWKDDKTLDRYANYEGCLWNATGVVVCTGDETQCYGTWVPIGLAIPENEGGGSEGGGSEGGGSEGGGTKPPEYGDTPIPGYTYINPLDGTYPPGTEQNPANPNPSLEESQPLNTFMFQNNRFRNRQGALTVYTGTVTQGTDPVKTYYQYTPVSSKAMYDAYWNGKFRDCAFHSGFNEDPFVCEYQGQSSDLPQPPVNAGGGSGGGSGGGSEGGGSEGGGSEGGGSEGGGSGGGSGSGDFDYEKMANANKGAMTENADENALQSDAKGKLDSVATDYGAAIDGFIGDVSGLANGNGATGDFAGSNSQMAQVGDGDNSPLMNNFRQYLPSLPQSVECRPFVFSAGKPYEFSIDCDKINLFRGVFAFLLYVATFMYVFSTFANILRNKES | – | HPT1/BSA [4]: 1 ratio |
| DCX45 (Assayed as M13 phage clone displaying the insert) peptide: SVGNDKTSRPVSFYGRVSDLWNASLMPKRTPSSKRHDDGAETVESCLAKPHTENSFTNVWKDDKTLDRYANYEGCLWNATGVVVCTGDETQCYGTWVPIGLAIPENEGGGSEGGGSEGGGSEGGGTKPPEYGDTPIPGYTYINPLDGTYPPGTEQNPANPNPSLEESQPLNTFMFQNNRFRNRQGALTVYTGTVTQGTDPVKTYYQYTPVSSKAMYDAYWNGKFRDCAFHSGFNEDPFVCEYQGQSSDLPQPPVNAGGGSGGGSGGGSEGGGSEGGGSEGGGSEGGGSGGGSGSGDFDYEKMANANKGAMTENADENALQSDAKGKLDSVATDYGAAIDGFIGDVSGLANGNGATGDFAGSNSQMAQVGDGDNSPLMNNFRQYLPSLPQSVECRPFVFSAGKPYEFSIDCDKINLFRGVFAFLLYVATFMYVFSTFANILRNKES | 0.336 OD | – |
| DCX42 (Assayed as M13 phage clone displaying the insert) peptide: RYSGLSPRDNGPACSQEATLEGCGAQRLMSTRRKGRNSRPGWTLAETVESCLAKPHTENSFTNVWKDDKTLDRYANYEGCLWNATGVVVCTGDETQCYGTWVPIGLAIPENEGGGSEGGGSEGGGSEGGGTKPPEYGDTPIPGYTYINPLDGTYPPGTEQNPANPNPSLEESQPLNTFMFQNNRFRNRQGALTVYTGTVTQGTDPVKTYYQYTPVSSKAMYDAYWNGKFRDCAFHSGFNEDPFVCEYQGQSSDLPQPPVNAGGGSGGGSGGGSEGGGSEGGGSEGGGSEGGGSGGGSGSGDFDYEKMANANKGAMTENADENALQSDAKGKLDSVATDYGAAIDGFIGDVSGLANGNGATGDFAGSNSQMAQVGDGDNSPLMNNFRQYLPSLPQSVECRPFVFSAGKPYEFSIDCDKINLFRGVFAFLLYVATFMYVFSTFANILRNKES | 0.158 OD | – |
| SNiAX8 (Assayed as M13 phage clone displaying the insert) peptide: SPKLSSVGVMTKVTELPTEGPNAISIPISATLGPRNPLRAETVESCLAKPHTENSFTNVWKDDKTLDRYANYEGCLWNATGVVVCTGDETQCYGTWVPIGLAIPENEGGGSEGGGSEGGGSEGGGTKPPEYGDTPIPGYTYINPLDGTYPPGTEQNPANPNPSLEESQPLNTFMFQNNRFRNRQGALTVYTGTVTQGTDPVKTYYQYTPVSSKAMYDAYWNGKFRDCAFHSGFNEDPFVCEYQGQSSDLPQPPVNAGGGSGGGSGGGSEGGGSEGGGSEGGGSEGGGSGGGSGSGDFDYEKMANANKGAMTENADENALQSDAKGKLDSVATDYGAAIDGFIGDVSGLANGNGATGDFAGSNSQMAQVGDGDNSPLMNNFRQYLPSLPQSVECRPFVFSAGKPYEFSIDCDKINLFRGVFAFLLYVATFMYVFSTFANILRNKES | – | hSI/BSA [5]: 5 ratio; OD [6]: 0.342 OD |
